Data published in the nanobody polyreactivity screen of Harvey et al. (2022).

Test: yeast display, Sf9 membrane polyspecificity reagent, FACS + sequencing; frameworks hold sequencing errors
Procedure, shortened: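 Synthetic nanobody libraries on Saccharomyces cerevisiae BJ5465 were galactose-induced for 36–48 hours, stained 1 hour at 4 °C with 10% biotinylated, detergent-solubilized Sf9 membrane reagent and enriched on streptavidin microbeads. FACS then separated cells into low and high (top ~1%) gates by anti-HA (expression) and streptavidin (reagent binding) fluorescence. Genes were colony-PCR amplified, MiSeq 2 × 250 sequenced and CDR-length filtered. A clone's polyreactivity label is that of its gate of origin.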

Sequence	polyreactivity (PSR sort gate)
QVQLVESGGGLVQAGGSLRLSCAASGFIFKWNAMGWYRPAPGKERELVAAISWHGGSTNYADSVKGRFTISRDNAKNTVYLQMNSLKQEDTAVYYCAKQQSPYYPSTLDYWGQGTQVTVSS	high polyreactivity
QVQLVESGGGLVQAGGSLRLSCAASGIIFAGNAMGWYRQAPGKERELVAAISSNGGSTYYADSVKGRFTISRDNAKNYVYLQMNSLKPEDTAVYYCAADRVYWGRVQGYYWGQGTQVTVSS	low polyreactivity
QVQLVESGGGLVQAGGSLRLSCAASGGTFVRYVMGWYRPAPGKERELVAAISGSGGSTYYADTVKGRFTISRDNAKNTVYLQMNSLKPEASAVYYCASVYYWSKFYYWGQGTQVTVSS	high polyreactivity
QVQLVESGGGLVQAGGSLRLSCAASGSTFVQNAMGWYRQAPGKERELVAAISRTGGSTYYADSVKGRITFSRDNAKNTVYLQLNTLKPEDTAVYFCAKRPPHYSWPKIIEFGSWGQGTQVTVSS	high polyreactivity
QVQLVESGGGLVQAGGSLRLSCAASGITFVNYAMGWYRQAPGKERELVAAITSGGNTYYADSVKGRFTISRDNAKNTVYLQMNSLKPEDTAVYYCAAKWFYGKPYRGYYYWGQGTQVTVSS	high polyreactivity
QVQLVESGGGLVQAGGSLRLSCAASGFIFWWYAMGWYRQAPGKERELVASISWSGGSTYYADSVKGRFTISRDNAKNTVYLQMNSLKPEDTAVYYCAASRARTIPGPHTNFNYWGQGTQVTVSS	high polyreactivity
QVQLVESGGGLVQAGGSLRLSCAASGFTFSSYAMGWYRQAPGKERELVAAITGGGSRTYYADSVKGRFTISRDNAKNTVYLQMYSLKPEDTAVYYCAKGLSTGRAYRGYDYWGQGTQVTVSS	high polyreactivity
QVQLVESGGGLVQAGGSLRLSCAASGSTFYYYAMGWYRQAPGKERELVASISASGGNTYYADSVKGRFTISRDNAKNTVYLQMNSLKPEDTAVYYCAARARRSQSISLKYYYWGQGTQVTVSS	high polyreactivity
QVQLVESGGGLVQAGGSLRLSCAASGGIFRSYTMGWYRQAPGKERELVAAISRSGGRTYYADSVKGRFTISRDNAKNTVYLQMNSLKPEDTAVYYCAAYVRSATLRVNYGYWGQGTQVTVSS	high polyreactivity
QVQLVESGGGLGQAGGSLSLTCAASGSIFARNAMGWYRQAPGKERELVAAISTGGGSTYYADSVKGRFTISRDNAQNTVYLQMNSLKPEETEVYYCAAVGRSYYGHDYWGQGTQVTVSS	low polyreactivity
QVQLVESGGGLVQAGGSLRLSCAASGSTFRRNVMGWSRQAPGKERELVAVISKSGGSTYYADSVKGRFTISRDNAENTVYLQMNSLKPEDTAVYYCAARYLKGYGYWGQGTQVTVSS	high polyreactivity
QVQLVDSGGGLVQAGGSLRLSCAASGYTFDRYAMGWYRQAPGKERELVAAISVRGGRTHYADSVKGRFTISRDNAKNTVYLQMNSLKPEDTAVYYCNKDSKGGYSVPHDYWGQGTQVTVSS	low polyreactivity
QVHLVESGGGLVQAGGSLRLSCAASGRTFVYNAMGWYRQAPGKERELVAAISQSGGSTYYADSVKGRFTISRDNAKNTVYLQMNSLKPEDTAVYYCAARYKTGSYVRYNYWGQGSQVTVSS	high polyreactivity
QVQLGESGGGLVQAGGSLRLSCAASGSIFSNYAMGWYRQAPWKERELVATIRLSGGSTYYADSVKGRFTISRDNAKNTVYLQMNSLKPEDTAVYDCAARIHWPYWYARLDYWGQVTQVTVSS	high polyreactivity
QVQLVESVGGLLQAGGRLRLSCAASGSTFGKYVMGWYRPAPGTERELVAAISLSGGSTYYADSVKGRFTISRDNAKNTVYLQMNCRKPEDTALNYCATVGYGYDYWGQATQVTVSS	high polyreactivity
QVQLVESGGGLVQAGGSLRLSCAASGIIFYYYAMGWYRQAPGTERELVARISLSGGSTYYADSVKGRFTISRDNAKNTVYLQMNSLKPEDTAVYYCATRSWYKRQTYDYWGQGTQVTVSS	high polyreactivity
QVQLVESGGGLVQAGGSLRLSCAASGSIFYTYAMGWYRQAPGKERELVAGISWRGGSTYYADSVKGRYTISRDNAKNTVYLQMNSLNPEDTAVYYCAASYFWDRVPGRGIHDYWGQGTQVTVSS	high polyreactivity
QVQLQESGRGLVQAGGSLLSCAASGTISWVDEMGWYRHAPGNERELVAGIAGGGNTNYADSLKGRFTISRDNAKNTVYLHMNSQDTAVYYCAVVVFGRGTHIYWCQGTQVTVSS	high polyreactivity
QVQLVESGGGLVQAGGSLRLSCAASGSTFVLYALGWYRQPPGKERELVAVISWSGGSTYYADSVKGRFTISRDKAKNTVYLQMNSLKPEDTADYYCAATGWSSFYYRFDYWGQGTQVTVSS	low polyreactivity
HVQLVESGGGLVQAGGSRLLSCAASGFTIYANAMGWYSQAPGKERELVAAITWRGGSTYYADSVKVRFTISRDNAKNTVYLQMNSLKPADTAVYYCNALKGRPVRSYLASPSYRYEYWGQGTQVTVSS	high polyreactivity

Sequence	polyreactivity (PSR sort gate)
QVQLVGSGGGLVQAGGSLRLSCAASGRTFRAYAMGWYRQAPGKERELVAAIRSSGGSTYADSVKGRFTISRDNAKNTVYLQMNSLKPEDTAVYYFAKPIAPARNAYPAYDYWGQGTQVTVSS	high polyreactivity
QVQLVESGGGLVQAGGSLRLSCAASGSIFGVYAMGWYRQAPGKERGLVARISGSSGSTRYADSVKGRFTISRDNAKNTVYLQMNSLKPEDTAVYYCAARAIFRQGDRIYDSWGQGTQVTVSS	high polyreactivity
QVQLVESGGGLVQAGGSLRLSCAASGSTFDRYALGWYRQAPGKERELVAAITRGGSTYYADSVKGRFTISRDNAKNTVYLQLNSLKPDDTAVYYCAAAHWWVRVRGARYSYWGHGTQVTVSS	high polyreactivity
QVQLVESGGGLFQAGGSLRLSCAASGYTFPLYDMGWYRQAPGKERELVADINIGGASTYYADSVKGRFTISRDNAKNTVNLQMNSLKPEDTAVYYCAKEYNDGYFPTFDYDYWGQGTQVTVSS	low polyreactivity
QVQLVESGGGLVQAGGSLRLSCAASGGTFLYYAMGWYRQAPGKETELVAAISRGGSTHYADSVKGRFTISRDNAKNTVYLQMNSLKPEDTAVYYCAVDGGEFSSYGYWGQGTQVTVSS	low polyreactivity
QVQLVESGGGLVQAGGSLRLSCAASGRTFYIYAMGWYRQAPAKERELVAAITWSRGSSTYYADSVKGRFTISRDNAKNTVYLQMNSLKPEDTAVYYCAAETHYYWYEQYDYCGQGTQVTVSS	high polyreactivity
QVQLVESGGGLVQAGGSLRLSCAASGFIFSGNAMGWYRQAPGKERELVARIRSGDRTYYADSVKGRFTISRDNAKNTVYLQMNSLKPEDTAVYYCAAYAWYDWRSYFPILGYEYCGQGTQVTVSS	low polyreactivity
QVQLVESGGGLVQAGGSLRLSCAASVSTFAYYAMGWYRQAPGKERELVAVISVSGDGTSTYYADSVKGRFTISRDNAKNTVYLQMNSLKPEDTAVYNCAAEQVLVGGHTYYLTYDYWGQGTQVTVSS	low polyreactivity
QVQLVESGGGLVQAGGSLRLSCAASGRTFVLYTMGRYRQAPGKERELVAVGSTYYADSVKGRFTISRDNAKNTVYLQMNSLKPEDTAVYYCNKPGNYVWRRSWDFDYWGQGTQVTVSS	high polyreactivity
QVQLVESGGGLVQAGGSLRLSCAASGIIFTYAMGWYRPAPGKERELVAAIDWRGGRTYYADSVKGRFTISRDNAKNTVYLQMNSLKPEDTSVYYCGARLPGGTYYWGQGTQVTVSS	high polyreactivity
QVKLVESGGGLVQAGGSLRLSFAASGYTFGSNAMGWYRQAPGKERELVADIDCSSGNTYYADSVKGRFTISRDNAKNTVYLQMNSLKPEDTAVYYCAAELHIYYSWYWYDYWGQGTQVTVSS	high polyreactivity
QVQLVESGGALVQAGGSLRLSCAASGSTFVQNAMGWYRQAPGKDRELVAAITIGGGSTYYADSVKGRFTISRDNAKNTVYLQMNSLKPEDTAVYYCAVEVGNPQLAYSYDYWGQGTQVTVSS	low polyreactivity
QVQLVESGGGLVQAGGSLRLSCAASGRTFTRYAMGLYRPAPGKERELVAAISYIGGRTNYADSVKGRFTISRDNAKKTVYLQMHSLKPEDTAVYYCAASRPWVYYDGLVYWGQGTQVTVTS	high polyreactivity
QVQLVESGGGLVQAGGSLRLSCAASGSISKFYAMGWYRQAPGKERELVAAISSGGITNYADSLKGRFTISRDNAKNTVYLQMNSLKPEDTAVYYCAKDYPYYEGAKYYYWGQGTQVTVSS	high polyreactivity
QVQLVESGGGLVQAGGSLRLSCAASGRTFQGNTMGWYRQAPGKERELVAAITWRGTTTYYADSVKGRFTISRDNAKNTVYVQMNSLKPEDTAVYYCAAGHALHSGDEFGYWGQGTQVTVSS	low polyreactivity
QVQLVESGGGLVQAGGSLRLSCAASGSTFIVYAMGWYRQAPGKERELVAAITASGGSTYADSVKGRFTISRDNAKNTVYLQMNSLKPEDTAVYYCAARRWSRKYRKYDYWGQGTQVTVSS	high polyreactivity
QVQLVESGGGLVQAGGSLRLSCAASGSIFPPYVMGWYRQAPGKERELVASITTSGGSTYYADSVKGRFTISRDNAKNTVYLQMNSLKPEDTAVYYCAARWYYGGKSAGPGGGYWGQGTQVTVSS	low polyreactivity
QVQLVESGGGLVQAGGSLRLSCAASGLIFQGYAMGWYRQAPGKEREFVAVITWSGGSTYYADSVKGRFTISRDNAKNTVYLQMNSLKPEDTAVYYCADDDVWYDFDYWGQGTQVTVSS	low polyreactivity
QVQLVESGGGLVQAGGSLRLSCAASGLIFYRNAMGWYRQAPGKERELVAAIRFSTGSTYYADSVKGRFTISRDNAKNTVYLQMNSLKPEDTAVYYCAADRRYYWYNYWGQGTQVNVSS	high polyreactivity
QVQLVESGGGLVPAGGSLRLSCAASGSNFYWYVMGWYRQAPGKERELVADIRYSPGRTYYADSVKGRFTISRDNAKNTVYLQMNSLIPEDTAVYYCKARRRLFTVDFDYWGQGTQVTVSS	high polyreactivity
